The stoichiometry N is the number of molecules, sites or subunits per partner or assembly.

Series [1] concerns the molecule itself. The experiment in a line: crystal structure.
Series [2] deals with the molecule itself. The experiment in a line: SEC-MALS.

B1: mouse ZP2 NTR ΔN1 construct mZP2-N2N3 (domain or fragment, UniProt P20239 135-360, looked up)
chain: PAIQAETHEISEIVVCRRDLISFSFPQLFSRLADENQNVSEMGWIVKIGNGTRAHILPLKDAIVQGFNLLIDSQKVTLHVPANATGIVHYVQESSYLYTVQLELLFSTTGQKIVFSSHAICAPDLSVACNATHMTLTIPEFPGKLESVDFGQWSIPEDQWHANGIDKEATNGLRLNFRKSLLKTKPSEKCPFYQFYLSSLKLTFYFQGNMLSTVIDPECHCESPVS
As to B1, the “stoichiometry N” value in series [1] came to 2.

B2: hOvst-cleaved hZP2-N1N2N3 (domain or fragment)
chain 1: not shown
chain 2: not shown
Take B2: the “stoichiometry N” value in series [2] stood at 2.

Values taken from paper doi:10.1101/2023.06.21.544075 (bioRxiv, 2023).
